In general, stoichiometry N refers to a count of units in the complex or per binding partner.

Data set [1] has as its target TagI, SRA-HNH modification-dependent restriction endonuclease from Thermocrispum agreste (Thermocrispum agreste). Nature of the data set: SEC-MALS; multi-angle light scattering of TagI alone. (SEC sorts molecules by how far they enter the pores of the column.)
For data set [2] the target is unchanged. In words: SEC; analytical gel filtration of TagI alone; apparent molecular mass compared with the theoretical mass of the dimer.
The target of data set [3] is T1, TagI (Thermocrispum agreste, UniProt A0A3F2YM30 1-311).
T1 sequence: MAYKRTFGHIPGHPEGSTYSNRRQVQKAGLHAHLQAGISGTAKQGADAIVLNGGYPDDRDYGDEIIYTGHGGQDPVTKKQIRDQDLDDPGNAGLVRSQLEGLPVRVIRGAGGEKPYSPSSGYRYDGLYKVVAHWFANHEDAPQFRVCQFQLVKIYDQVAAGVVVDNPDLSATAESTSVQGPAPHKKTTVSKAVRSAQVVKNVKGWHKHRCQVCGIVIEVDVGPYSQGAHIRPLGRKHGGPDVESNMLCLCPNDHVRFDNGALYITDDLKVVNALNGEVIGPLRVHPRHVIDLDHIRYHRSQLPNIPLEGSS
Nature of the data set: analytical gel filtration (SEC co-migration); 1, 2 or 4 duplexes per TagI dimer; sharp complex peak, 93 kDa, about 1 duplex per dimer; analytical gel filtration; buffer, salt, pH and temperature not given in the material. To be noted: protein: recombinant; chain copies: 2; blunt.

Data set [4] has as its target T1, TagI. Nature of the data set: analytical gel filtration (SEC co-migration); 1, 2 or 4 duplexes per TagI dimer; migrated independently; analytical gel filtration; buffer, salt, pH and temperature not given in the material. To be noted: protein: recombinant; chain copies: 2; blunt.

As to “TagI, SRA-HNH modification-dependent restriction endonuclease from Thermocrispum agreste (enzyme)”, the stoichiometry N in data set [1] and in data set [2] was 2 in each case.

B1: 17mer fully methylated duplex (dsDNA)
DNA 1: CCTAGAGCAGCAATCCC
DNA 2: GGGATTGCTGCTCTAGG
modifications: 5mC at position 8 of strand 1 and position 8 of strand 2
Take B1: the binding result with TagI [3] is “binds”.

B2: 17mer unmodified duplex (dsDNA)
DNA 1: CCTAGAGCAGCAATCCC
DNA 2: GGGATTGCTGCTCTAGG
Turning to B2, in the data set with TagI [4], the binding result is on record as “no binding”.

The values are drawn from PMC6212794, “Crystal structure of the modification-dependent SRA-HNH endonuclease TagI”.
